{
  "source": "paper PMC5493754",
  "about": "“Myosin 7 and its adaptors link cadherins to actin” (Nature Communications, 2017)",
  "binders": {"B1": {"name": "Harmonin-a PDZ3c (non-fluorescent, as used in MST) (domain or fragment, human, UniProt Q9Y6N9-1 428-552, looked up)", "chain": "QDFRKYEEGFDPYSMFTPEQIMGKDVRLLRIKKEGSLDLALEGGVDSPIGKVVVSAVYERGAAERHGGIVKGDEIMAINGKIVTDYTLAEAEAALQKAWNQGGDWIDLVVAVCPPKEYDDELTFF", "notes": "Harmonin-a1 (USH1C), human, PDZ3 plus C-terminal peptide, residues 428-552 of UniProt Q9Y6N9-1; The methods say only that samples for ITC or crystallisation were digested with TEV protease; also called PDZ3c (isoA); source: E. coli BL21 (DE3) Rosetta, purified (Glutathione Sepharose 4B, size-exclusion chromatography)"}, "B2": {"name": "YFP-Harmonin-a PDZ3c (domain or fragment, human, UniProt Q9Y6N9-1 428-552, looked up)", "chain": "B1 chain", "notes": "Harmonin-a1 (USH1C), human, residues 428-552 of UniProt Q9Y6N9-1; also called ^YFPPDZ3c (isoA); source: E. coli BL21 (DE3) Rosetta, purified (Glutathione Sepharose 4B, size-exclusion chromatography)"}},
  "details_in_all_cases": "both partners purified",
  "key": {"[1]": {"target": "T1, SANS_(CEN-PBM) with YFP-harmonin NPDZ1.PDZ2 ( | human, UniProt Q495M9 300-461; Q9Y6N9-1 1-301)", "T1 construct": "SANS (USH1G), residues 300-461 of UniProt Q495M9; as m41; Harmonin-a1 (USH1C), human, residues 1-301 of UniProt Q9Y6N9-1; as m31; also called SANS_(CEN-PBM)+^YFPNPDZ1.PDZ2; source: purified E. coli proteins mixed", "T1 sequence (looked up) 1": "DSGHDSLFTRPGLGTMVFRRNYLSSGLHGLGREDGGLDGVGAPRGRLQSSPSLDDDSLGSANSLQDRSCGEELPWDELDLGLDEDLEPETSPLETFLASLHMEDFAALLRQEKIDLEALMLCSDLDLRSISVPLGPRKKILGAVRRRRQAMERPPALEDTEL", "T1 sequence (looked up) 2": "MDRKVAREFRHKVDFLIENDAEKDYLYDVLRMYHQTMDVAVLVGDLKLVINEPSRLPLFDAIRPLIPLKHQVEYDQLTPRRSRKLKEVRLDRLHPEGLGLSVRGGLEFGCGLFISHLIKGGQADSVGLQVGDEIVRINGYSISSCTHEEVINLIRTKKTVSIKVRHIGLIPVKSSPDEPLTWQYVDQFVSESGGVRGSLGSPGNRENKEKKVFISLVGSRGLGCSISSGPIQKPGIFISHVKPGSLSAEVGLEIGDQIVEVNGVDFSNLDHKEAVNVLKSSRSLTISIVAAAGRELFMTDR", "experiment": "MST; YFP-fused partner held together with a third protein (saturating concentrations; competition experiments), non-fluorescent protein titrated"}, "[2]": {"target": "T2, YFP-SANS_(CEN-PBM) saturated with harmonin NPDZ1.PDZ2 ( | human, UniProt Q495M9 300-461; Q9Y6N9-1 1-301)", "T2 construct": "SANS (USH1G), residues 300-461 of UniProt Q495M9; as m40; Harmonin-a1 (USH1C), human, residues 1-301 of UniProt Q9Y6N9-1; as m30; also called ^YFPSANS_(CEN-PBM)+NPDZ1.PDZ2; source: purified E. coli proteins mixed (saturating NPDZ1.PDZ2); not shown: YFP, N-terminal, kept", "T2 sequence (looked up) 1": "T1 sequence (looked up) 1", "T2 sequence (looked up) 2": "T1 sequence (looked up) 2", "experiment": "MST; YFP-fused partner held together with a third protein (saturating concentrations; competition experiments), non-fluorescent protein titrated"}, "[3]": {"target": "T3, Myo7a MF2 G1982R (deafness mutant) (human, UniProt Q13402-1 1702-2215, G1982R)", "T3 construct": "Myosin 7a, human, MF2, residues 1702-2215 of UniProt Q13402-1, with a deafness missense mutation; source: E. coli, purified similarly as wild type (Histrap, CaptoQ, gel filtration)", "T3 sequence (looked up)": "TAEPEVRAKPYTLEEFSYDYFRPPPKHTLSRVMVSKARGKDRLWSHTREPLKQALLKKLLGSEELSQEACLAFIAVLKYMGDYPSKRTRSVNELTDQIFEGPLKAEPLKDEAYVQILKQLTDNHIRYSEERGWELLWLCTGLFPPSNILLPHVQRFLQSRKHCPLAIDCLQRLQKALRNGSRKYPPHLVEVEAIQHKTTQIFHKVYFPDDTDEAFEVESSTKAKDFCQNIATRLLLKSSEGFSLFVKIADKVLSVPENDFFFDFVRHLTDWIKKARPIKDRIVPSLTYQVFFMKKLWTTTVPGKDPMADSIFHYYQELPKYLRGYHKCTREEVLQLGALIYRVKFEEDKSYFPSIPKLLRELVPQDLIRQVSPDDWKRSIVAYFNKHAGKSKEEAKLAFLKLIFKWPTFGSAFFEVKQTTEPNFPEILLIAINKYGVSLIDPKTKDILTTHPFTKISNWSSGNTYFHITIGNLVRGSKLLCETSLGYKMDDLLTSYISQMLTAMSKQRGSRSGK", "experiment": "MST; YFP-fused partner constant at 100 nM, non-fluorescent protein titrated (16 two-fold dilutions); 20 mM Hepes pH 7.0, 100 mM NaCl, 1 mM EGTA, 0.5 mM TCEP, 0.05% Tween 20; Monolith NT.115"}, "[4]": {"target": "T4, Myo7a MF2 K2118N (deafness mutant) (human, UniProt Q13402-1 1702-2215, K2118N)", "T4 construct": "Myosin 7a, human, MF2, residues 1702-2215 of UniProt Q13402-1, with a deafness missense mutation; source: E. coli, purified similarly as wild type (Histrap, CaptoQ, gel filtration)", "T4 sequence (looked up)": "T3 sequence (looked up) with R281G, K417N", "experiment": "MST; YFP-fused partner constant at 100 nM, non-fluorescent protein titrated (16 two-fold dilutions); 20 mM Hepes pH 7.0, 100 mM NaCl, 1 mM EGTA, 0.5 mM TCEP, 0.05% Tween 20; Monolith NT.115"}},
  "note": "Where a chain is given by its changes, count along the chain named.",
  "data": [
    {"binder": "B1", "values": [
      {"measurement": "Kd", "setting": "[1]", "result": "> 100", "unit": "µM"},
      {"measurement": "Kd", "setting": "[2]", "result": "> 100", "unit": "µM"}
    ]},
    {"binder": "B2", "values": [
      {"measurement": "Kd", "setting": "[3]", "result": "> 60", "unit": "µM"},
      {"measurement": "Kd", "setting": "[4]", "result": "> 60", "unit": "µM"}
    ]}
  ]
}
